According to paper PMC3286128 (Biochemistry, 2012):

Target: purified monomeric human β-actin (G-actin) (human, UniProt P60709 1-375)
Test: pull-down

B1: sv1_(360–420ARM) peptide (peptide)
peptide: not shown
modifications: amino-terminal biotin
Does B1 bind?
Result: binds
